Four molecules from patent US20050064514A1 (MacroGenics, published 2005) can be followed below.

Test [1] has as its target T1, FcγRIIB-Fc fusion protein (soluble dimeric FcγRIIB) (human, UniProt P31994 43-217).
T1 construct: extracellular domain; also called FcRIIB-Fc; FcR2B; not shown: hinge-CH2-CH3 domain of human IgG2
T1 sequence (looked up): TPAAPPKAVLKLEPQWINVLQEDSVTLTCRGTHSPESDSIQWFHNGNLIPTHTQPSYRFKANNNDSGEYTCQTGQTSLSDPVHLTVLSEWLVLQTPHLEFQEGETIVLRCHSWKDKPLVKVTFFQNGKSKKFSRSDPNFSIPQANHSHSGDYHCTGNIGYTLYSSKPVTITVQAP
As to the kind of experiment: BIAcore ch4-4-20.

In test [2] the target is T1, FcγRIIB-Fc fusion protein (soluble …). As to the kind of experiment: BIAcore.
Test [3] has the same target. As to the kind of experiment: BIAcore separate fit. (SPR reads the build-up and loss of mass on a sensor chip optically.)

For orientation: koff means a measure of how fast the partners let go of each other.

Numbering of substitutions follows the chain as printed. Numbers in names are those of the source.

B1: ch4-4-20 MgFc66 (A330V, G427M) (antibody)
chain 1: not shown
chain 2: DVVMTQTPLSLPVSLGDQASISCRSSQSLVHSNGNTYLRWYLQKPGQSPKVLIYKVSNRFSGVPDRFSGSGSGTDFTLKISRVEAEDLGVYFCSQSTHVPWTFGGGTKLEIKRTVAAPSVFIFPPSDEQLKSGTASVVCLLNNFYPREAKVQWKVDNALQSGNSQESVTEQDSKDSTYSLSSTLTLSKADYEKHKVYACEVTHQGLSSPVTKSFNRGEC
B1: the “Koff WT/Mut” value in test [1] was 0.62.

B2: ch4-4-20 K288N, A330S, P396L (antibody)
chain: EPKSCDKTHTCPPCPAPELLGGPSVFLFPPKPKDTLMISRTPEVTCVVVDVSHEDPEVKFNWYVDGVEVHNANTKPREEQYNSTYRVVSVLTVLHQDWLNGKEYKCKVSNKALPSPIEKTISKAKGQPREPQVYTLPPSREEMTKNQVSLTCLVKGFYPSDIAVEWESNGQPENNYKTTPLVLDSDGSFFLYSKLTVDKSRWQQGNVFSCSVMHEALHNHYTQKSLSLSPGK
As for B2, the koff in test [2] and in test [3] was 0.05 s⁻¹ throughout.

B3: ch4-4-20 E293V, Q295E, A327T (antibody)
chain: B2 chain with N73K, E78V, Q80E, A112T, S115A, L181P
Regarding B3, in test [2], the koff came out at 0.074 s⁻¹. The “Koff WT/Mut” value in test [1] was determined as 1.3.

B4: ch4-4-20 Y319F, P352L, P396L (antibody)
chain: B2 chain with N73K, Y104F, S115A, P137L
The molecule B4 displayed a koff in test [2] of 0.041 s⁻¹. Further, the “Koff WT/Mut” value in test [1] is 2.29.
